Test results: doi:10.1101/2023.07.28.550924 (bioRxiv, 2023)

Key:
[1] = target: the molecule itself; assay: SEC
[2] = target: T1, Spirochaeta thermophila YeeE (Spirochaeta thermophila, UniProt G0GAP6 1-328); assay: BLI
T1 sequence (looked up): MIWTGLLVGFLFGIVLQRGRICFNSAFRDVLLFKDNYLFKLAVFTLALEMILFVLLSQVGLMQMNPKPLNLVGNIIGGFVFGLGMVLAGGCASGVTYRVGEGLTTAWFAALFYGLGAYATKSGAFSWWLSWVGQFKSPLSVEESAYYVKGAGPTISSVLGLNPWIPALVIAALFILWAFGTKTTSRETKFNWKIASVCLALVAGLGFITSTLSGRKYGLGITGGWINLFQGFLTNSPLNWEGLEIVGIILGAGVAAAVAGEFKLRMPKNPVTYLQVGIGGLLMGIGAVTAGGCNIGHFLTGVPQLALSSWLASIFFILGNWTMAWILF

- Kd [2]: 1600 ± 200 nM
B1: Spirochaeta thermophila YeeD, His-tagged, wild type (natural protein, UniProt G0GAP7 1-80, looked up)
chain: MANYQVSKEIDVRGEVCPIPDVEAKRAVQSANDGEIILVRIDYPLSKERIPETVKKLGSEVLEIEEAAPGEWNIYIKVKK
- stoichiometry N [1]: 2
